Laboratory results reported in publication PMC4528935, “Structures of Pseudomonas aeruginosa β-ketoacyl-(acyl-carrier-protein) synthase II (FabF) and a C164Q mutant provide templates for antibacterial drug discovery and identify a buried potassium ion and a ligand-binding site that is an artefact of the crystal form” (Acta Crystallographica. Section F, Structural Biology …, 2015).

Columns and labels:
[1] = target: the molecule itself; test: crystal structure; apo PaFabF, space group P2_(1), two molecules in the asymmetric unit; 0.2 M MgCl2, 0.1 M Tris-HCl pH 7.0, 10% PEG 8000, 293 K
[2] = target: the molecule itself; test: crystal structure; PaFabF-C164Q, space group C222_(1), a dimer in the asymmetric unit; 0.2 M NH4HCO2, 25% PEG 3350, 293 K

B1: Pseudomonas aeruginosa β-ketoacyl-(acyl-carrier-protein) synthase II (FabF) (enzyme)
chain: MSRRRVVITGMGMLSPLGLDVPSSWEGILAGRSGIAPIEHMDLSAYSTRFGGSVKGFNVEEYLSAKEARKLDLFIQYGLAASFQAVRDSGLEVTDANRERIGVSMGSGIGGLTNIENNCRSLFEQGPRRISPFFVPGSIINMVSGFLSIHLGLQGPNYALTTACTTGTHSIGMAARNIAYGEADVMVAGGSEMAACGLGLGGFGAARALSTRNDEPTRASRPWDRDRDGFVLSDGSGALVLEELEHARARGARIYAELVGFGMSGDAFHMTAPPEDGAGAARCMKNALRDAGLDPRQVDYINAHGTSTPAGDIAEIAAVKSVFGEHAHALSMSSTKSMTGHLLGAAGAVEAIFSVLALRDQVAPPTINLDNPDEGCDLDLVAHEAKPRKIDVALSNSFGFGGTNGTLVFRRFAD
notes: β-ketoacyl-(acyl-carrier-protein) synthase II (FabF) of Pseudomonas aeruginosa, UniProt G3XDA2; the gene was cloned into pNIC28-Bsa4; theoretical mass of a monomer 43 kDa; The models hold 822 residues for two chains (4b7v) and 408 for one chain (4jpf); also called PaFabF; apo PaFabF; source: E. coli BL21(DE3)pLysS, purified (Ni2+ HisTrap, TEV cleavage, second HisTrap, Superdex 200 SEC); not …
B1: binds [1].

B2: PaFabF C164Q mutant (enzyme)
chain: MSRRRVVITGMGMLSPLGLDVPSSWEGILAGRSGIAPIEHMDLSAYSTRFGGSVKGFNVEEYLSAKEARKLDLFIQYGLAASFQAVRDSGLEVTDANRERIGVSMGSGIGGLTNIENNCRSLFEQGPRRISPFFVPGSIINMVSGFLSIHLGLQGPNYALTTAQTTGTHSIGMAARNIAYGEADVMVAGGSEMAACGLGLGGFGAARALSTRNDEPTRASRPWDRDRDGFVLSDGSGALVLEELEHARARGARIYAELVGFGMSGDAFHMTAPPEDGAGAARCMKNALRDAGLDPRQVDYINAHGTSTPAGDIAEIAAVKSVFGEHAHALSMSSTKSMTGHLLGAAGAVEAIFSVLALRDQVAPPTINLDNPDEGCDLDLVAHEAKPRKIDVALSNSFGFGGTNGTLVFRRFAD
notes: β-ketoacyl-(acyl-carrier-protein) synthase II (FabF) of Pseudomonas aeruginosa, UniProt G3XDA2, with Cys164 changed to Gln; same construct in pNIC28-Bsa4 as the wild type; The model holds 824 residues for two chains (4jb6); source: E. coli BL21(DE3)pLysS, purified as the wild type but in phosphate buffer; not shown: His6, N-terminal, cleaved
B2: binds [2].
